In article PMC8240856 (The Journal of Cell Biology, 2021):

B1: GST-Bro1V(370-709) (domain or fragment)
chain: DVYEKESIYSEEKATLLRKQVEETETANLEYSSFIEFTNLPRLLSDLEKQFSDGNIFSNTDTQGQLMRDQIQTWCKFIQTNEFRDIEEQMNKIVFKRKQILEILSALPNDQKENVTKLKSSLVAASNSDEKLFACVKPHIVEINLLNDNGKIWKKFDEFNRNTPPQPSLLDIDDTKNDKILELLKQVKGHAEDLRTLKEERSRNLSELRDEINNDDITKLLIINKGKSDVELKDLFEVELEKFEPLSTRIEATIYKQSSMIDDIKAKLDEIFHLSNFKDKSSGEEKFLEDRKNFFDKLQEAVKSFSIFASDLPKGIEFYDSLFNMSRDLAERVRVAKQTE
B2: Bro1 V domain (Bro1V; aa 370-709) (domain or fragment)
chain: DVYEKESIYSEEKATLLRKQVEETETANLEYSSFIEFTNLPRLLSDLEKQFSDGNIFSNTDTQGQLMRDQIQTWCKFIQTNEFRDIEEQMNKIVFKRKQILEILSALPNDQKENVTKLKSSLVAASNSDEKLFACVKPHIVEINLLNDNGKIWKKFDEFNRNTPPQPSLLDIDDTKNDKILELLKQVKGHAEDLRTLKEERSRNLSELRDEINNDDITKLLIINKGKSDVELKDLFEVELEKFEPLSTRIEATIYKQSSMIDDIKAKLDEIFHLSNFKDKSSGEEKFLEDRKNFFDKLQEAVKSFSIFASDLPKGIEFYDSLFNMSRDLAERVRVAKQTE
B3: Bro1V^M10 (K481D) (domain or fragment)
chain: DVYEKESIYSEEKATLLRKQVEETETANLEYSSFIEFTNLPRLLSDLEKQFSDGNIFSNTDTQGQLMRDQIQTWCKFIQTNEFRDIEEQMNKIVFKRKQILEILSALPNDQDENVTKLKSSLVAASNSDEKLFACVKPHIVEINLLNDNGKIWKKFDEFNRNTPPQPSLLDIDDTKNDKILELLKQVKGHAEDLRTLKEERSRNLSELRDEINNDDITKLLIINKGKSDVELKDLFEVELEKFEPLSTRIEATIYKQSSMIDDIKAKLDEIFHLSNFKDKSSGEEKFLEDRKNFFDKLQEAVKSFSIFASDLPKGIEFYDSLFNMSRDLAERVRVAKQTE
B4: Bro1V^M9 (T587D) (domain or fragment)
chain: DVYEKESIYSEEKATLLRKQVEETETANLEYSSFIEFTNLPRLLSDLEKQFSDGNIFSNTDTQGQLMRDQIQTWCKFIQTNEFRDIEEQMNKIVFKRKQILEILSALPNDQKENVTKLKSSLVAASNSDEKLFACVKPHIVEINLLNDNGKIWKKFDEFNRNTPPQPSLLDIDDTKNDKILELLKQVKGHAEDLRTLKEERSRNLSELRDEINNDDIDKLLIINKGKSDVELKDLFEVELEKFEPLSTRIEATIYKQSSMIDDIKAKLDEIFHLSNFKDKSSGEEKFLEDRKNFFDKLQEAVKSFSIFASDLPKGIEFYDSLFNMSRDLAERVRVAKQTE
B5: Bro1V^M4 (V505A, H508A, I512A) (domain or fragment)
chain: DVYEKESIYSEEKATLLRKQVEETETANLEYSSFIEFTNLPRLLSDLEKQFSDGNIFSNTDTQGQLMRDQIQTWCKFIQTNEFRDIEEQMNKIVFKRKQILEILSALPNDQKENVTKLKSSLVAASNSDEKLFACAKPAIVEANLLNDNGKIWKKFDEFNRNTPPQPSLLDIDDTKNDKILELLKQVKGHAEDLRTLKEERSRNLSELRDEINNDDITKLLIINKGKSDVELKDLFEVELEKFEPLSTRIEATIYKQSSMIDDIKAKLDEIFHLSNFKDKSSGEEKFLEDRKNFFDKLQEAVKSFSIFASDLPKGIEFYDSLFNMSRDLAERVRVAKQTE
B6: Bro1V^M8 (E686A, L691D) (domain or fragment, S. cerevisiae, UniProt P48582 370-709, looked up)
chain: DVYEKESIYSEEKATLLRKQVEETETANLEYSSFIEFTNLPRLLSDLEKQFSDGNIFSNTDTQGQLMRDQIQTWCKFIQTNEFRDIEEQMNKIVFKRKQILEILSALPNDQKENVTKLKSSLVAASNSDEKLFACVKPHIVEINLLNDNGKIWKKFDEFNRNTPPQPSLLDIDDTKNDKILELLKQVKGHAEDLRTLKEERSRNLSELRDEINNDDITKLLIINKGKSDVELKDLFEVELEKFEPLSTRIEATIYKQSSMIDDIKAKLDEIFHLSNFKDKSSGEEKFLEDRKNFFDKLQEAVKSFSIFASDLPKGIAFYDSDFNMSRDLAERVRVAKQTE

target: T1, His6-Vps4 (S. cerevisiae, UniProt P52917 1-437); assay: pull-down
T1 sequence: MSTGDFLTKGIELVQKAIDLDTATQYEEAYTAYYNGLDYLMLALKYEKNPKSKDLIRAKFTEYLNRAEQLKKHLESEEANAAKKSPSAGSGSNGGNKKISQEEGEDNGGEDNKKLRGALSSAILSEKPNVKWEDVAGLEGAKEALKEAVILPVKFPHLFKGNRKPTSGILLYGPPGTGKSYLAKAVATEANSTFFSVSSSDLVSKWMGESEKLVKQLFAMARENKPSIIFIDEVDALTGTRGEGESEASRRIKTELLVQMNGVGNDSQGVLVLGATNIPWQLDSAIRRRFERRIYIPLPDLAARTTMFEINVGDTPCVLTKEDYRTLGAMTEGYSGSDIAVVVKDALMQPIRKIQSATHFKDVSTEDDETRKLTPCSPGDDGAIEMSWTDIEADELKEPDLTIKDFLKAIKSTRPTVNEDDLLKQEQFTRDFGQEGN

Binding result, binds:
B1
B2
B3
B4
B5

target: T1, His6-Vps4; assay: pull-down; remark: another data set of the same source

Binding result, binds:
B6
